These results are taken from patent US9663800B2, “Alkane exporter and its use” (Nanyang Technological University, priority 2012, dated 2017).

Data set [1] deals with S. cerevisiae BY4741. Description: Alkane susceptibility test in liquid culture. Type of data set: cell-based, Saccharomyces cerevisiae. The protocol: (§1) FIG. 2. Alkane susceptibility test for S. cerevisiae. The alkane susceptibility was tested in cells expressing ABC2/3 or with empty plasmid. (A) Alkane susceptibility test on agar plate. Serial dilutions of cells expressing ABC2/3 were spotted on agar plates with alkanes (decane, undecane) as vapour phase. Plates were incubated at 28° C. for 2 days. (B) Alkane susceptibility test in liquid culture. Overnight cell culture was diluted into induction medium (final OD600=0.4) with different alkanes (decane & undecane) concentrations. The plates were incubated for 48 hr at 28° C. The OD600 value of each sample was determined and plotted against its corresponding alkane concentration. Symbols for strains are: control sample with empty plasmid (open circle), cells expressing ABC2 (filled circle), cell expressing ABC3 (filled triangle).
Overnight culture was diluted into 5 ml induction medium in 50 ml glass bottle (Sigma) at an initial OD600 of 0.4. Alkanes were added as different final concentration. Bottles were sealed tightly with butyl rubber stopper (Sigma) and silver aluminum seal (Sigma). Liquid culture was performed at 28° C. with shaking. Growth was monitored by measuring the OD600 at different time point. Cell culture used for time point OD checking was collected from the glass bottle using needle and syringe.
To further analyze the effect of ABC2 and ABC3 toward decane and undecane, alkane susceptibility tests in liquid culture were conducted. […] With the expression of ABC2, decane tolerance was boosted about 80-fold (20% vs. 0.25% decane) and cells can survive in 20% undecane. For ABC3, decane tolerance is increased slightly by about 3-fold (0.75% vs. 0.25% decane) and cells are resistant to 20% undecane. It is apparent that the expression of ABC2 and ABC3 transporters improved the tolerance toward C10 and C11 alkanes.

In a further data set the test system is ABC2 mRNA. Nature of the data set: Quantitative RT-PCR of ABC2 transcripts after alkane treatment. It counts as cell-based. The settings on record: Y. lipolytica CLIB122, 24 h alkane treated vs. untreated, normalized to actin, p<0.05. From the text:
(§2) FIG. 3. mRNA transcripts levels of ABC2 and ABC3 in Y. lipolytica. Quantitative RT-PCR analysis of ABC2 (A) and ABC3 (B) in Y. lipolytica cells corresponding to treatment with octane, nonane, decane, undecane and dodecane (C8-C12). Each value of qRT-PCR was normalized to β-actin expression levels and expressed as the fold change relative to the levels detected in control samples, which were cells without alkane treatment and set equal to 1. Error bars represent the SD of triplicate.
(§3) To assess whether ABC1, ABC2, ABC3 and ABC4 are involved in alkane transport in Y. lipolytica, we analysed the effects of alkanes with different chain length (C8-C12) on the transcription levels of these four ABC transporter genes using quantitative RT-PCR.
(§4) Total RNA samples from 24 h alkane treated and untreated Y. lipolytica CLIB122 cells were prepared using RNeasy Mini Kit (Qiagen), followed by cDNA synthesis using H minus Reverse transcriptase kit (Fermentas). Quantitative RT-PCR analysis was performed on a Bio-Rad iQ5 real-time PCR detection system using SsoFast EvaGreen Supermix kit (Bio-Rad). The actin gene (YALI0D08272g) was used as reference gene for Y. lipolytica. Relative mRNA levels were derived using comparative CT method.

In the next data set the test system is ABC3 mRNA. Description: Quantitative RT-PCR of ABC3 transcripts after alkane treatment. It counts as cell-based. The settings on record: Y. lipolytica CLIB122, 24 h alkane treated vs. untreated, normalized to actin, p<0.05.
Text: as §2, §3, §4

The subject of data set [2] is S. cerevisiae BY4741. Nature of the data set: Intracellular alkane accumulation (GC-FID) in cells expressing ABC2/3. It counts as cell-based, Saccharomyces cerevisiae. The settings on record: S. cerevisiae BY4741 expressing the transporter, 48 h, control with empty plasmid. The method, then: FIG. 1. Intracellular alkane accumulation by ABC2 and ABC3. S. cerevisiae BY4741 with and without ABC2/3 were cultured under exposure of 0.5% alkane or 20% undecane. After 48 h incubation, intracellular alkane levels were measured. Intracellular alkane levels were normalized to that of control carrying empty plasmid. Data shown are the mean±SD of four biological replicates.
Intracellular alkane accumulation was analysed with GC-FID after 48 h incubation with 0.5% decane or 20% undecane.
After induction for 48 h with or without addition of alkanes, S. cerevisiae cells transformed with pYES2, pYES2ABC2 and pYES2ABC3 were harvested at 6000 g for 5 min at 4° C. After washing with 50 mM Tris.Cl, cells were equally divided into two parts, one part for alkane GC analysis and the other for determination of total protein concentration. For GC analysis, cell pellets were re-suspended in freshly prepared Chloroform/Methanol (v/v, 2:1). Dodecane was added into cell suspension as an internal standard. Acid-washed glass beads were added until the suspension was covered. Cells were then lysed by mechanical agitation using FastPrep-24 (MPBio) for 6 min at 6 m/s. The crude extract was obtained by pipette. After addition of autoclaved ddH2O, the crude extract was emulsified for 10 min by inversion. After centrifuge, the crude extract was separated into two phases. The bottom phase containing alkane was transferred into a new 1.5 ml microcentrifuge tube and purified as above with HPLC grade chloroform and autoclaved ddH2O until particulate matter was no longer observable. The purified solution was transferred into a clear GC vial for GC analysis. To check the total protein concentration, Cell pellets were re-suspended into 50 mM Tris.Cl and lysed via mechanical agitation with acid-washed glass beads using FastPrep-24 for 6 min at 6 m/s. Protein concentration of obtained crude extract was determined using the Bradford protein assay (Bio-Rad). Intracellular alkane levels were normalized to internal standard and cell lysate protein content.

Data set [3] has as its system S. cerevisiae BY4741. Nature of the data set: Alkane susceptibility test on agar plate. It counts as cell-based, Saccharomyces cerevisiae. The settings on record: cells expressing the transporter, 28° C., 2 days. The method, then: as §1
Alkane susceptibility test on plates was performed according to the methods of Mauersberger et al.. Exponentially growing cells in induction medium were centrifuged and re-suspended with induction medium at OD600=1. Ten microliter aliquots of successive 10-fold dilutions (non diluted, 10-1, 10-2, 10-3) of cells were spotted onto the induction medium plate. Medium chain alkanes were supplied as vapour phase by placing 200 μl alkane on a sterile filter paper in the lid of the petri dish. Plates were incubated at 28° C. for 2 days.
Toxicity test was implemented to study the effect of ABC2 and ABC3 on the tolerance of the cells toward alkanes. The toxic effects of alkanes on S. cerevisiae with ABC2 and ABC3 were measured through alkane susceptibility test on agar plates. […] It was observed that the expression of ABC2 would lead higher tolerance toward decane than ABC3.

Regarding `CCCCCCCCCC` [decane], the “alkane concentration causing a significant decrease in viability of the control cells” value with S. cerevisiae BY4741 [1] (control cells with empty plasmid, 48 hr, 28° C.) amounted to 0.5%. In addition, in the data set on ABC2 mRNA, the “mRNA levels of ABC2” value is on record as “significantly increased”. In addition, the “mRNA levels of ABC3” value in the data set on ABC3 mRNA is “significantly increased”.

Take `CCCCCCCCC` [nonane]: the “mRNA levels of ABC2” value in the data set with ABC2 mRNA was “significantly increased”. The “mRNA levels of ABC3” value in the data set on ABC3 mRNA was “significantly increased”.

B1: ABC3: Y. lipolytica ABC transporter, SEQ ID NO. 5, GenBank CAG82646, heterologously expressed in S. cerevisiae (protein, listed as Yarrowia lipolytica)
chain: MTDPVPITQDPTIYSSQQDAEIRSLAESIHSQHSNNSNNSTELTNPYVDTSDPELDPWSGQFNSRKWSRTILGLKRRYGTSKEITAGVSFKNLGAYGYGGGADYQKTVANAVLGLEGVVRTLFHLEKKEDKVQILSDFNGVLWPGETCVVLGRPGSGCTTLLKSIACETYGFQLDKETEWNYQGIPRKIMQKTCRGEIVYNAEVDVHFPHLTVGDTLMFASLARTPQNRFDGVTREQYAKHTRDVTMASLGLSHTLDTKVGNDFVRGVSGGERKRVSIAESIVCGSPLQCWDNSTRGLDAATATEFLRWLRHSAELTGASMFVSLYQASQEAYELFDKVTVLYEGQQIYFGPGEQAKQYFEEMGFECPHRQTTGDFLTSITSPAERIVAPGFEGKTPRTASEFAERWRQSQAYANLQEEIERFNTEFPVGGNRVADIMELKQEKQSDHIKVSSPYTISIPMQVKLCLTRGFQRLRGDLSMALTTVLGNFVVALILSSMFYNMPEDTSSFFSRGALLFFAMLMNAMSSVLEIIVLYELRPIVEKHQRYAMYHPFCEALASIICDFPTKFLTMLCVNVTLYFMSNLRREAGPFFIFFLFTLLCVLAMSMIFRTIAAVTKTLQQALAPAAVIILALIIYTGFTLPISYMRGWARWINYIDPIAYGFEAVMVNEFRNREFPCALFIPQQSTYDQLGSPYQGCMAVGAKPGERFVNGDRYLEMAFDYSQAHLWRNLGIMFGFILFFAFTYLTAVEFIQSAKSKGEVLVFLRSSLKQRKKRAHLMDVEANAEKVGAAQDREILVQQEEGQQEETSSCTPSDSTPKDIFQWKDVCYDIKVKGGEKRLLDNVDGWVKPGTLTALMGCSGAGKTTLLDVLADRKATGVITGDMRVNGQKRDASFQRKTGYVQQQDLHTATSTVREALEFSALLRQPSNVPKAEKIAYVDEVIDILEMQAYADAVVGVPGEGLNVEQRKRLTIGVELAAKPELLLFLDEPTSGLDSQTAWSIICLLKKLANRGQAILCTIHQPSAILFQEFDRLLFMTLGGKTVYYGDIGANSSALINYFESKGADPCPEEANPAEWMLAAIGAAPGSIAKHDWAVVWNESEERARERDLLDKMAEELAAQSTHDEKNELVTSKSVGSSQTSSSSYSAKSQYATSQATQLYYLTKRLWTYYWRSPRYIWSKLLMSIASALFIGFSYYKASQDIQGLQNQMFAFFMLFLIFVIIMVQILPHFVAQRELYEARERSSMAYSWQAFMGSNILVELPWQTLVAVLVFFCFYYPIGLQNNATGHLGERGALFFLLLWSFYVYNSTFAHMMGAAFENKENAATIGYLLFALCLIFCGVLATKEDMPHFWIFMYRVSPLTYLISGLLSAGVGETRVECTDNELVLFKPMNGTNCGKYMHPFMEGLGHTDMPMGYLVDPSATDMCGYCPISNTNGYLDQIDVKYSQRWRNYGILFAYPAFNVFMAFAFYYIFRVPKKSRKQKA
For B1, the “lower intracellular decane level relative to the control” value with S. cerevisiae BY4741 [2] (0.5% decane) is around 5 fold. In addition, the “reduction of intracellular undecane level compared to the control sample” value in the data set on S. cerevisiae BY4741 [2] (20% undecane) was “approximately 30 fold”. In the data set on S. cerevisiae BY4741 [1] (cells expressing the transporter vs. control (0.25% decane), 48 hr, 28° C., OD600), the decane tolerance increase entry is “about 3 fold”. The “survival in 20% undecane” value with S. cerevisiae BY4741 [1] (cells expressing the transporter, 20% undecane) is “resistant”. Moreover, the decane concentration tolerated with S. cerevisiae BY4741 [1] (cells expressing the transporter, 48 hr, 28° C., control 0.25% decane) is 0.75%. Also, in the data set with S. cerevisiae BY4741 [3] (decane as vapour phase), the “cell tolerance toward decane” value was “considerably improved”. The “cell tolerance toward undecane” value in the data set on S. cerevisiae BY4741 [3] (undecane as vapour phase) is given as “considerably improved”.
